This is an account of results in US20160193316A1 (priority 1994, published 2016).

In one assay the target is HLA-A*1101 (Homo sapiens, UniProt P04439, A114D/D185E/E176A/F33Y/L180Q/S129P/T187R). Put plainly: HLA class I peptide binding assay. The conditions noted are these: Table XVII.
The target in the next assay is T1, HLA-A*0301 (Homo sapiens, UniProt P04439).
T1 construct: endogenous in cells; host or cells: GM3107
Kind of assay: HLA class I peptide binding assay. The conditions noted are these: for A*0301 (binding information): Malaria A3 motif peptides, Table XVI; for A*301 (binding data): Malaria A03 supermotif peptides, binding value, no unit given.

The target in another assay is T2, DRB1*0301 (DR3) (Homo sapiens, UniProt P01903+P01911, A100K/A102G/A103R/A169T/F55Y/I96L/K41T/L162R/M171V/P40S/Q125H/Q178H/Q39Y/R42S/S66N/T106N/T262R/W38E/Y61H).
T2 construct: endogenous in cells; host or cells: MAT
Kind of assay: HLA class II peptide binding assay (pH 4.5).

The target in another assay is T3, DRB1*0101 (DR1) (Homo sapiens, UniProt P01903+P01911, A100R/D57E/F55L/F60I/F76Y/I96L/L162R/M171V/P40L/Q125E/R42F/V115G/Y59C).
T3 construct: endogenous in cells; host or cells: LG2
T3 sequence (P01903 26-254 partner, other chains not shown): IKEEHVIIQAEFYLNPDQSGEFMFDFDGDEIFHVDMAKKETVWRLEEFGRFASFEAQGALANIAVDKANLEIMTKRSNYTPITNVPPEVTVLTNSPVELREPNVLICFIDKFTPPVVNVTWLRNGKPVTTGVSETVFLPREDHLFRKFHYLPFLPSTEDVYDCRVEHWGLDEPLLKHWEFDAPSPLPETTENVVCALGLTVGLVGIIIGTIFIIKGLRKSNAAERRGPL
Put plainly: HLA class II peptide binding assay. The conditions noted are these: Table XIXb, Malaria Super Motif Peptides With Binding Data; DR1.

Another assay has as its target T4, DRB1*0401 (DR4w4) (Homo sapiens, UniProt P01903+P01911, A100K/A169T/F76Y/I96L/K127E/L162R/M171V/N62H/P40V/Q125Y/R42H/S133A/S149N/S66Y/V115G/V209L/W38E).
T4 construct: endogenous in cells; host or cells: Preiss
Kind of assay: HLA class II peptide binding assay. The note with it: Table XIXb; DR4w4.

The target in another assay is T5, DRB1*0405 (DR4w15) (Homo sapiens, UniProt P01903+P01911, A100R/A169T/D86S/F76Y/I96L/K127E/L162R/M171V/N62H/P40V/Q125Y/R42H/S133A/S149N/S66Y/V115G/V209L/W38E).
T5 construct: endogenous in cells; host or cells: KT3
Kind of assay: HLA class II peptide binding assay. The conditions noted are these: Table XIXb; DR4w15.

A further assay deals with T6, DRB1*0701 (DR7) (Homo sapiens, UniProt P01903+P01911, A100R/A102G/A103Q/D57E/D86V/E43K/F76Y/K127E/L162R/M171V/P40G/Q125H/Q99D/R33Q/R42Y/R54Q/S133A/S66F/T210M/V115G/Y107V/Y59L/Y89S).
T6 construct: endogenous in cells; host or cells: Pitout
Put plainly: biochemical. The format is binding.

In a further assay the target is T7, DRB1*0802 (DR8w2) (Homo sapiens, UniProt P01903+P01911, A100R/A103L/A169T/F76Y/H45Y/I96F/K41T/L162R/M171V/P40S/Q125H/Q178H/Q39Y/Q99D/R218S/R42G/S66Y/V115G/W38E).
T7 construct: endogenous in cells; host or cells: OLL
Put plainly: biochemical. The format is binding.

In a further assay the target is T8, DRB1*1101 (DR5w11) (Homo sapiens, UniProt P01903+P01911, A100R/A169T/A87E/I96F/K41T/L162R/M171V/P40S/Q125H/Q178H/Q39Y/Q99D/R42S/S66Y/T262R/V115G/W38E).
T8 construct: endogenous in cells; host or cells: Sweig
T8 sequence (P01903 26-254, other chains not shown): as the sequence (P01903 26-254 partner, other chains not shown) above
Put plainly: biochemical. It counts as binding.

The target in another assay is T9, DRB1*1201 (DR5w12) (Homo sapiens, UniProt P01903+P01911, A100R/A169T/D57E/D86V/F55L/H45Y/K41T/L162R/M171V/P40S/Q125H/Q178H/Q39Y/Q99D/R42G/S66L/T262R/V114A/V67L/W38E/Y59H/Y61H/Y89S).
T9 construct: endogenous in cells; host or cells: Herluf
Put plainly: HLA class II peptide binding assay. The conditions noted are these: Table XIXb; DR5w12.

Another assay concerns the target T10, DRB5*0101 (DR2w2β2) (Homo sapiens, UniProt P01903+Q30154).
T10 construct: expressed in transfected cells; host or cells: L416.3 (fibroblasts) or GM3107
The format is binding.

Another assay concerns the target T11, DRB4*0101 (DRw53) (Homo sapiens, UniProt P01903+P13762, G164S).
T11 construct: expressed in transfected cells; host or cells: L257.6 (fibroblasts)
Kind of assay: HLA class II peptide binding assay (pH 5.0). The note with it: Table XIXb; DRw53.

[1] abbreviates: malaria A11 motif peptides, binding value unit not given.
The mark [2] stands for this setting: Malaria A11 motif peptides, HLA-A*1101 binding value, unit not given.
Where [3] appears, read: Malaria A11 motif peptides, binding value for HLA-A*1101, unit not given.
Setting [4] is: HLA-A*0301 binding value, unit not given.

T4 sequence (P01903 26-254 partner, other chains not shown): as above

As to CCKGIRSRKR, the “A*1101 binding information” value with HLA-A*1101 (setting [1]) came to 0.0002.
CSVTCGKGTR: the “A*0301 (binding information)” value in the assay with HLA-A*0301 (binding value to HLA-A*0301, unit not given) is listed as 0.0002. The “A*301 (binding data)” value with HLA-A*0301 came out at 0.0002. Also, in the assay with HLA-A*1101 (setting [1]), the “A*1101 binding information” value turned out to be 0.0002.
Turning to DGNNEDNEX, in the assay with HLA-A*1101 (setting [2]), the “A*1101 binding information” value was 0.0002.
As to EDMCYFMK, the “A*1101 binding information” value in the assay with HLA-A*1101 (setting [3]) is 0.0003.
With EMADCTNK, the “A*1101 binding information” value with HLA-A*1101 (setting [2]) worked out at 0.0002.
Regarding ESITINVEGR, the “A*1101 binding information” value with HLA-A*1101 (setting [3]) worked out at 0.0002.
Turning to FDEILGEEDK, the “A*1101 binding information” value with HLA-A*1101 (setting [1]) is given as 0.0002.
Turning to FLKENKLNK, the “A*301 (binding data)” value at HLA-A*0301 worked out at 0.0260. For the same sequence, the “A*0301 (binding information)” value on HLA-A*0301 (setting [4]) turned out to be 0.0260. Moreover, the “A*1101 binding information” value at HLA-A*1101 (setting [3]) is on record as 0.0005. The sequence also yielded a DR3 binding information at DRB1*0301 (DR3) (Malaria DR3b motif peptides, unit not given) of 0.0950.
On to FVEALFQEY, for which the “A*1101 binding information” value on HLA-A*1101 (setting [2]) stood at 0.0003.
For the sequence GLVLYNIEK, the “A*1101 binding information” value in the assay with HLA-A*1101 (setting [2]) is 0.0055.
Turning to HORNNENRSY, in the assay with HLA-A*1101 (setting [1]), the “A*1101 binding information” value is recorded as 0.0002.
Consider IFLKENIQNK, for which, in the assay with HLA-A*1101 (setting [3]), the “A*1101 binding information” value was found to be 0.0002.
In the assay with DRB1*0101 (DR1), IQNHTLETV showed a DR1 binding data of 0.0001. In the assay with DRB1*0301 (DR3) (Table XIXb, DR3), this sequence had a DR3 binding data of -0.0041. The DR4w4 binding data with DRB1*0401 (DR4w4) was -0.0007. Moreover, the DR4w15 binding data with DRB1*0405 (DR4w15) was -0.0014. Also, the DR7 binding data with DRB1*0701 (DR7) was -0.0003. Also, the DR8w2 binding data with DRB1*0802 (DR8w2) is on record as -0.0003. In the assay with DRB1*1101 (DR5w11), this sequence returned a DR5w11 binding data of -0.0002. In addition, in the assay with DRB1*1201 (DR5w12), the DR5w12 binding data worked out at 0.0001. For the same sequence, the DR2w2β2 binding data with DRB5*0101 (DR2w2β2) is given as -0.0005.
For the sequence KGKKYEKIK, the “A*0301 (binding information)” value in the assay with HLA-A*0301 (setting [4]) is reported as 0.0002. Further, in the assay with HLA-A*1101 (setting [3]), the “A*1101 binding information” value was 0.0002.
As for KSLYDEHIIK, the “A*1101 binding information” value with HLA-A*1101 (setting [3]) came out at 0.0340.
For the sequence LALLACAGL, in the assay with DRB1*0101 (DR1), the DR1 binding data worked out at 0.0018. Also, in the assay with DRB1*0401 (DR4w4), the DR4w4 binding data was -0.0007. Moreover, the DR4w15 binding data with DRB1*0405 (DR4w15) is -0.0014. For the same sequence, the DR7 binding data with DRB1*0701 (DR7) is on record as 0.0009. For the same sequence, the DR8w2 binding data in the assay with DRB1*0802 (DR8w2) was 0.0003. In addition, the DR5w11 binding data with DRB1*1101 (DR5w11) is -0.0002. Further, the DR5w12 binding data with DRB1*1201 (DR5w12) is recorded as 0.0051. Further, the DRw53 binding data in the assay with DRB4*0101 (DRw53) is -0.0005. In the assay with DRB5*0101 (DR2w2β2), this sequence registered a DR2w2β2 binding data of 0.0013.
LERTKASKE yielded a DR7 binding data in the assay with DRB1*0701 (DR7) of 0.0010. In the assay with DRB1*0802 (DR8w2), this sequence had a DR8w2 binding data of -0.0003. The sequence further returned a DRw53 binding data with DRB4*0101 (DRw53) of -0.0005.
